# Reference: PMC10131064 (The Journal of Biological Chemistry, 2023)
# Residue numbers refer to the chain shown, from its start.
# B1: extracellular domain of rat NLGN2 (residues V43-H612) with splice insert A (domain or fragment, UniProt Q62888-1 43-612, looked up)
# chain: VVNTAYGRVRGVRRELNNEILGPVVQFLGVPYATPPLGARRFQPPEAPASWPGVRNATTLPPACPQNLHGALPAIMLPVWFTDNLEAAATYVQNQSEDCLYLNLYVPTEDGPLTKKRDEATLNPPDTDIRDSGKKPVMLFLHGGSYMEGTGNMFDGSVLAAYGNVIVATLNYRLGVLGFLSTGDQAAKGNYGLLDQIQALRWLSENIAHFGGDPERITIFGSGAGASCVNLLILSHHSEGLFQKAIAQSGTAISSWSVNYQPLKYTRLLAAKVGCDREDSTEAVECLRRKSSRELVDQDVQPARYHIAFGPVVDGDVVPDDPEILMQQGEFLNYDMLIGVNQGEGLKFVEDSAESEDGVSASAFDFTVSNFVDNLYGYPEGKDVLRETIKFMYTDWADRDNGEMRRKTLLALFTDHQWVAPAVATAKLHADYQSPVYFYTFYHHCQAEGRPEWADAAHGDELPYVFGVPMVGATDLFPCNFSKNDVMLSAVVMTYWTNFAKTGDPNQPVPQDTKFIHTKPNRFEEVVWSKFNSKEKQYLHIGLKPRVRDNYRANKVAFWLELVPHLHNLH
# Key:
# Experiment in all cases: SPR
# [1] = molecular target: T1, human MDGA1 WT soluble ectodomain (residues 22-920, lacking the GPI anchor region), (His)6-tagged (human, UniProt Q8NFP4-1 22-920)
# T1 sequence: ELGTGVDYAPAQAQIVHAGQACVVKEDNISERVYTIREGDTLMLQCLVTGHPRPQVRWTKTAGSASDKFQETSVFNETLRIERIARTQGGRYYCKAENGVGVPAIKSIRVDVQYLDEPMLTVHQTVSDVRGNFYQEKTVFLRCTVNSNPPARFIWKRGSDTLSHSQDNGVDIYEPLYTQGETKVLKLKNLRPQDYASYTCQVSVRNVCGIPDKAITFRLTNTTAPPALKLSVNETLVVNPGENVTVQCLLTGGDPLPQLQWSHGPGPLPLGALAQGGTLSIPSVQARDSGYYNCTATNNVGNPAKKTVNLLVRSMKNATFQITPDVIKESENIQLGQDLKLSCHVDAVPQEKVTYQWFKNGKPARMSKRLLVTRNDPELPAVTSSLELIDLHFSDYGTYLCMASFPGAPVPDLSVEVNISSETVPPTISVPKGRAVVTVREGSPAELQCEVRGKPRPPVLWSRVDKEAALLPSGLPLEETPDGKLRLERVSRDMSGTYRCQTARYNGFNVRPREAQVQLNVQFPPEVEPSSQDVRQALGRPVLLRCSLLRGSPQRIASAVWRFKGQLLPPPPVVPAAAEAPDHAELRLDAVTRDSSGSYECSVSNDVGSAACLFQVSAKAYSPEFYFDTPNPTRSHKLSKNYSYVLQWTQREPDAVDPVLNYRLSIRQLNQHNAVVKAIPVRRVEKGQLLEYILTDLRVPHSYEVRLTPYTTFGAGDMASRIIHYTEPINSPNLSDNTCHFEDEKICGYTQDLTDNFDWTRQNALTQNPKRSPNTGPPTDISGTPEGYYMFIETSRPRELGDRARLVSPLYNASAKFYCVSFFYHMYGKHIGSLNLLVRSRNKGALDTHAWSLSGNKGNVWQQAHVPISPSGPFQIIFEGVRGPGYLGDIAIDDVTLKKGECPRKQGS
# [2] = molecular target: T2, human MDGA1 I336D soluble ectodomain, (His)6-tagged (human, UniProt Q8NFP4-1 22-920, I336D)
# T2 sequence: T1 sequence with I322D
# [3] = molecular target: T3, human MDGA1 T135C/N313C soluble ectodomain, (His)6-tagged (human, UniProt Q8NFP4-1 22-920, T135C | N313C)
# T3 sequence: T1 sequence with T121C, N299C
# [4] = molecular target: T4, human MDGA1 V314D soluble ectodomain, (His)6-tagged (human, UniProt Q8NFP4-1 22-920, V314D)
# T4 sequence: T1 sequence with V300D
binder,measurement,setting,value
B1,Kd,[1],3.4 nM
same,binding result,[2],binds
same,binding result,[3],binds
same,binding result,[4],binds
